Data on 12 substances can be found in article PMC11963670.

In assay [1] the target is RHDV GI.1b P domain of VP60, MBP fusion (rabbit hemorrhagic disease virus GI.1b (isolate RHDV-Ast89)). As to the kind of experiment: native gel or EMSA; nondenaturing PAGE of the MBP-P domain fusions, western blot with an anti-His tag monoclonal antibody; monomer band (calculated 85 kDa) and a slower band of the dimer.
Assay [2] deals with RHDV GI.2 P domain loop-swap mutant L1´ (loop 1 of GI.1b), His-tagged MBP fusion (rabbit hemorrhagic disease virus GI.2 (isolate N-11)). Described as above.
Assay [3] deals with RHDV GI.2 P domain loop-swap mutant L1´L4´ (loops 1 and 4 of GI.1b), His-tagged MBP fusion (rabbit hemorrhagic disease virus GI.2 (isolate N-11)). Described as above.
Assay [4] deals with RHDV GI.2 P domain loop-swap mutant L1´L4´L5´ (loops 1, 4 and 5 of GI.1b), His-tagged MBP fusion (rabbit hemorrhagic disease virus GI.2 (isolate N-11)). The description is as above.
Assay [5] deals with RHDV GI.2 P domain loop-swap mutant L2´ (loop 2 of GI.1b), His-tagged MBP fusion (rabbit hemorrhagic disease virus GI.2 (isolate N-11)). The description is as above.
For assay [6], the target named is RHDV GI.2 P domain loop-swap mutant L3´ (loop 3 of GI.1b), His-tagged MBP fusion (rabbit hemorrhagic disease virus GI.2 (isolate N-11)). The assay is described as above.
Assay [7] has as its target RHDV GI.2 P domain loop-swap mutant L4´ (loop 4 of GI.1b), His-tagged MBP fusion (rabbit hemorrhagic disease virus GI.2 (isolate N-11)). The description is as above.
Assay [8] deals with RHDV GI.2 P domain loop-swap mutant L4´L5´ (loops 4 and 5 of GI.1b), His-tagged MBP fusion (rabbit hemorrhagic disease virus GI.2 (isolate N-11)). The assay is described as above.
The target in assay [9] is RHDV GI.2 P domain loop-swap mutant L5´ (loop 5 of GI.1b), His-tagged MBP fusion (rabbit hemorrhagic disease virus GI.2 (isolate N-11)). Described as above.
The target of assay [10] is RHDV GI.2 P domain mutant N387A, MBP fusion (rabbit hemorrhagic disease virus GI.2 (isolate N-11)). Kind of assay: native gel or EMSA; PAGE under denaturing or native conditions of the MBP-P domain point mutants; monomer and homodimer bands; BSA as negative control. On the technique in general: Mobility shift assays separate free from complexed probe on a gel.
Assay [11] concerns the target RHDV GI.2 P domain mutant N387D, MBP fusion (rabbit hemorrhagic disease virus GI.2 (isolate N-11)). The description is as above.
Assay [12] addresses RHDV GI.2 wild-type P domain of VP60 (isolate N-11), His-tagged MBP fusion (rabbit hemorrhagic disease virus GI.2 (isolate N-11)). Kind of assay: native gel or EMSA; nondenaturing PAGE of the MBP-P domain fusions, western blot with an anti-His tag monoclonal antibody; monomer band (calculated 85 kDa) and a slower band of the dimer.

Take “RHDV GI.1b P domain of VP60, MBP fusion (domain or fragment)”: in assay [1], the stoichiometry N was 2. As for “RHDV GI.2 P domain loop-swap mutant L1´ (loop 1 of GI.1b), His-tagged MBP fusion (domain or fragment)”, the stoichiometry N in assay [2] is 2. On to “RHDV GI.2 P domain loop-swap mutant L1´L4´ (loops 1 and 4 of GI.1b), His-tagged MBP fusion (domain or fragment)”, for which the stoichiometry N in assay [3] is 2. “RHDV GI.2 P domain loop-swap mutant L1´L4´L5´ (loops 1, 4 and 5 of GI.1b), His-tagged MBP fusion (domain or fragment)”: in [4], the stoichiometry N was 2. Turning to “RHDV GI.2 P domain loop-swap mutant L2´ (loop 2 of GI.1b), His-tagged MBP fusion (domain or fragment)”, the stoichiometry N in assay [5] was 2. Turning to “RHDV GI.2 P domain loop-swap mutant L3´ (loop 3 of GI.1b), His-tagged MBP fusion (domain or fragment)”, the stoichiometry N in [6] is 2. For “RHDV GI.2 P domain loop-swap mutant L4´ (loop 4 of GI.1b), His-tagged MBP fusion (domain or fragment)”, the stoichiometry N in assay [7] is 2. As for “RHDV GI.2 P domain loop-swap mutant L4´L5´ (loops 4 and 5 of GI.1b), His-tagged MBP fusion (domain or fragment)”, the stoichiometry N in assay [8] was 2. For “RHDV GI.2 P domain loop-swap mutant L5´ (loop 5 of GI.1b), His-tagged MBP fusion (domain or fragment)”, in assay [9], the stoichiometry N is 2.

“RHDV GI.2 P domain mutant N387A, MBP fusion (domain or fragment)” registered a stoichiometry N in assay [10] of 2. For the substance “RHDV GI.2 P domain mutant N387D, MBP fusion (domain or fragment)”, the stoichiometry N in [11] is 2. For “RHDV GI.2 wild-type P domain of VP60 (isolate N-11), His-tagged MBP fusion (domain or fragment)”, the stoichiometry N in assay [12] was 2.

As usually defined, the stoichiometry N is the number of molecules, sites or subunits per partner or assembly.
